Publication PMC13012646

Biological target: human kallikrein 7 variant hK7-2.7 (human) (UniProt P49862)
Chain of UniProt P49862 (P49862 30-253 Q52R/N119S/K129G/V157G/L189Q/Q228R/G233V): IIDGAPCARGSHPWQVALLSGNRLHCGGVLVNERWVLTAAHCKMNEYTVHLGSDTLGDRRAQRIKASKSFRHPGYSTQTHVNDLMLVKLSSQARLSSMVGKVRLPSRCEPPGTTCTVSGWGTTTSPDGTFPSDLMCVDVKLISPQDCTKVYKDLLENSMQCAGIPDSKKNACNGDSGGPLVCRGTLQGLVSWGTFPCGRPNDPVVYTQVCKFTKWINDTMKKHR

Substance “lympho-epithelial Kazal-type related inhibitor (LEKTI) fragment consisting of domains 10–15 (domain or fragment)” has an inhibition of Aβ8 FRET reporter cleavage (5 nM protease, 200 nM substrate, 37°C) of over 130 nM.
